# Test results reported in the nanobody polyreactivity screen of Harvey et al. (2022).
# Assay: yeast display, Sf9 membrane polyspecificity reagent, FACS + sequencing; frameworks hold sequencing errors
# Procedure, shortened: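 Genes from sorted yeast were amplified by colony PCR, read by MiSeq 2 × 250 sequencing and filtered on CDR length. These cells carried a synthetic nanobody library in Saccharomyces cerevisiae BJ5465 and were sorted by FACS into low and high (top ~1%) gates on anti-HA and streptavidin fluorescence. Polyreactivity is labelled according to the gate of origin.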
row,Sequence,polyreactivity (PSR sort gate)
1,QVQLVESGGGLVQAGGSLRLSCAASGGTFGNYAMGWYRQAPGKERELVAAISTRGGSTYYADSVKGRFTISCDNAKNTVYLQMNSLKPEDTAVYYCNARIKRPRGVYGGDYWGQGTQVTVSS,high polyreactivity
2,QVQLVESGGGLVQAGGSLRLSCAASGSIFYNYGMGWYRQAPGKERELVAAIRASGDSTYYADSVKGRFTISRDNAKNTVYLQMNSLKPEDTAVYYCAARPNQSYYGLYFYWGQGTQVTVSS,low polyreactivity
3,QVQHVESGVGLVQAGGSLRLSCAASGRTFHSSTMGWYRLAAGKERELVAAISKSGGSTYYADSVKGRFTLSRDNAKNTVYLQMNSLKPEDTAVYYCAADPGSRVHPGVYYWGQGTQLTVSS,high polyreactivity
4,QVHIVESGGGLVQAGGSLRLSSAASGRIFYRYAMGWYRQAPGKERELVAAISRRGGSTYYADSVKGRFTISRDNAKNTVYLQMNSLKPEDTAVYYCNVYRSAFSYDSWGQGTQVTVSS,high polyreactivity
5,QVQLVESGGGFVQAGGSLRISCAASGSTIGGNGKGWYRQAPGKEREIVATITWPSGSTYYADSVKGRFTISRDNAKNTVYLQMKSLKPEDTAVYYCAKNTSSRRNPWYYYWGQGTQVTVSS,high polyreactivity
6,QVQLVESGGGLVQAGGSLRLSCAASGFTFSYYAMGWYRQAPGKERELVAAISWSGGSTYYADSVKGRFTISRDNAKNTVYLQMNSLKPEDTAVYYCARVLTRPGRLDYWGQGTQVTVSS,high polyreactivity
7,QVQLVESGGGLVQAGGSLRLSCAASGITFAYYVMGWYRQAPGKERELVAAINGSGGSTYYADSVKGRFTISRDTAKNTVYLQMNSLKPEDTAVYYCAAEQYVYRRYPEPDWYAYNYWGQGTQVTVSS,high polyreactivity
8,QVQLQESGGGLVQAGGSLRQSYAASGYIFPSLAKGWYRQAPGKEREFVAAIGRGSTNNYADSVKGRFTISRDNAKKTAYQQMNSLKPEDTAVYYCAAAASPLTRHLYWGQGTQVTVSS,low polyreactivity
9,QFQLVESGGGLVQAGGSLRLSCPASGRIFYYYSMGWYRQAPGKEREFVAAITGRGGSTYYADSVKGRFTISRDNAKYTVYLQMNSLKPEDTADYYCNAGQYFEYYGWYSRYGYWGQGTQVTVSS,low polyreactivity
10,QVQLVESSGGLVQAGGSLRLSCAASGSTFALYAMGRYSQAPGKERELVAAITASGGSTYYADSVKGRLTISRDIAKKTVDLQMNSLKAEDTAVYYCATGRTKRYLYPPGYWGQGTQVTVSS,high polyreactivity
11,QVQLVESGGGLVQAGGSLRLSCAASGNIFYKNNMGWYRQAPGKERELVAAISFSGGGTYYADSVKGRFTISRDNAKNTVYLQMNSLKPEDTAVYYCAAEYTYGWTYRPFDYWGQGTQVTVSS,high polyreactivity
12,QVQLVESGGGLFQAGGSLRLSCAASGSIFRYYAMGWYRQAPGKERELVARISWRGGSTYADSVKGRFTISRDNAKNTVYLQMNSLKPEDTAVYYCAGVLAVGSYDYWGQGTQVTVSS,low polyreactivity
13,QVQLVESGGGLVQAGGSLRLSCAASGFNFAIYAMGWYRQAPGKERELVAAISSSGGSTYYADSVKGRFTISRDNAKNTVYLQMNSLKPEDTAVYYCNADWSLYWLDYWGQGTQVTVSS,high polyreactivity
14,QVQLVESGGGLVQAGGSLRLSCAASGRIFAFYAMGWYRQAPGKERELVAAISWDGGSSYYADSVKGRFTISRDNAKNTVYLQMNSLKPEDTAVYDCNKDLYYAYDYWGQGTQVTVSS,low polyreactivity
15,QVHLVESGGGLVQAGGSLRLSCAASGRIFNWYVMGWYRQAPGKERELVAAITSGGITKYADSVKGRFTISRDNAKNTVYLQMNSLKPEDTAVYYCAAYYRRYDYDYWGQGSQVTVSS,high polyreactivity
16,QVQLVESGGGLVQVGGSLRLSCAASGSIFAINAMGWYRQAPGKERELVAAIRRRDGNTYYADSVKGRFTISRDNAKNTVYLQMNSLKPEDTAVYYCNTYSRRTSVIAYRYNYWGQGTQVTVSS,high polyreactivity
17,QVQLVESGGGLVQAGGSLRLSCAASGFIFEYNAMGWYRQAPGKERELVAAITSSGGSTYYADSVKGRFTISRDNAKNTVYLQMNSLKPEDTAVYYCARVRRSAYYKDYYYWGQGTQVTVSS,high polyreactivity
18,QVQLVESGGGLLQAGGSLRLSCAASGITFGRNTMGWYRQAPGKERELVAAINSGGSTTYADSVKGRFTISRDNAKNTVYLQMISLKPEDSAVYYCNKSSTGWTATYDYWGQGTQVTVSS,low polyreactivity
19,QVRLVESGGGLVQAGGSLRLSCADSGSTFTTYAIGWYRQEPGKERELVAAISSGGDTKYADSVKGRFTISRDNAKNTVYLQMNSLKPEDTAVYYWNVVSFRYYYKYGYCGQGTQVTVSS,high polyreactivity
20,QVQLVESGGGLVQAGGSLRLSCAASGSTFTINVMGWYRQAPGKERELVAAINCGGRTNYADSVKGRFTISRDNAKNTVYLQMNSLKPEDTAVYNCAADGRSNVRQMDYWGQGTQVTVSS,low polyreactivity
21,QVQLVESGGGLVQAGGSLRLSCAASGRTLYDYAMEWYRQAPGKERELVAGITSGDSTYYADSVKGRFTISRDNAKNTVDLQMNSLKPEDTAVYYCAADSDTFYYTGYDYDYWGQGTQGTVSS,low polyreactivity
22,QVQLVESGGGLVQAGGSLRLSCAASGSTFESYAMGWYRQAPGKERELVAAISWRVGSTYYADSVKGRFTISRDNAKNTVYLQMNSLKPEDTAVYYCASKGWYSHYGGYDYWGQGTQVTVSS,low polyreactivity

row,Sequence,polyreactivity (PSR sort gate)
1,QVQLVESGGGLVQAGGSLRLSCAASGFIFGLNAMGWYRQAPGKERELVAVIAFSGGSTYYADSVKGRFTISRDNAKNTVYLQMNSLKPEDTAVYYCNAVTRYPHPREYDYWGQGTQVTVSS,high polyreactivity
2,QVQLVESGGGLVQAGGSLRLSCAASGSIFDVNSMGWYRQAPGKERELVAAISDSGGSTYYADSVKGRFTISRDNAKNTVYLQMNSLKPEDTAVYYCNADWSWYNYYDFDYLGQGTQVTVSS,low polyreactivity
3,QVQLVESGGGLVQAGGSLRLSCAASGRTFSSNAMGWYRHAPGKERELVAAISFRGGRTFYADSVKGRFTISRDNAKNTGFLQMNSLKPEDSAVYYCNAVPETRSYDYWGQGTQVTVSS,high polyreactivity
4,QVQLVESGGGLVQAGGSLRLSCAASGSTFVRNAMGWYRQAPGKERELVAAISNVGSTYYADSVKGRFTISRDNAKNTVYLQMNSLKPEDTAVYYGTKQLWYHKFNYWGQGTQVTVSS,low polyreactivity
5,QVQLVESGGGLVQAGGSLRLSCAASGFTIRYYAMGWYRQAPGKERELVAAIDWSGGSTYYADSVKGRFTISRDNAKNTVYLQINSLKPEDTAVYYCNVDFYDLYVYLWYVDYDYWGQGTQVTVSS,high polyreactivity
6,QVQLVESGGGLVQAGGSLRLSCAASGSTFYYNAMGWYRQAPGKERELVATISGGGTTYYADSVKGRFTISRDNAKNSVYLQMISLKPEDTAVYYCATDWHIEYLYRKVHGRKHDYWGQGTQVTVSS,low polyreactivity
7,QVQLVESGVGLVQAGGRLRLSCAASGLIFNDNMGWYRQSPGKEREVVAAISSSGGSTSYADSVKGRFTISRDNAKNTVYLQMNSLKPEDTAVYYCAADSYPAYLGFVGFDYWGQGTQVTVSS,low polyreactivity
8,QVQLVESGGGLVQAGGSLRLSCAASGSIFSYYAMGWYRQAPGKERELVAAISQNGGSTYYADSVKGRFTNSRDNAKNSVSFQMNRLKAEETAVYYCYAYSVYVRGEYWGQGTQVTVSS,high polyreactivity
9,QVQLVESGGGLVQAGCSLRLSCAASGSIFRVYAMGWYRQAPGKEREFVAAITRSGGSTYYADSVKGRFTISRDNAKNTVYLQMNSLKPEDTAVYYCNAVYYSWAQSARFDYWGQGTQVTVSS,low polyreactivity
10,QVQLVESGGGLVQAGGSLRLSCAASGSIFTCNAMGWYRQAPGKERELVAAISYISGGTYYADSVKGRFTISRDNAKNTVYLQMNSLKPEDTAVYYCAAVVYYYTYHYWGQGTQGTVSS,low polyreactivity
11,QVQLVESGAGLVQAGGSLRLSCAASGITFAYYAMGWYRQAPGKERELVAAIRGGTNTYYADSVKGSYTISRDNAKNTVYFLMNSLKPEDTAVYYCAARRSSHWFTYDYWGQGTLVTVSS,high polyreactivity
12,QVQLVESGGGLVQAGGSLRLSCAASGIIFTNNAIGWYRQAPGKERELGAAITSGGRTYYADSVKGRFTISRDNAKNTVSLQMNSLKPEDTAVYYCNARYYYGGWRVGYWGQGTQLTVSS,high polyreactivity
13,QVQLVESGGGLVQAGGSLRLSCAASGYIFKSNVMGWYRQAPGKERELVAAITTDGSTYYADSVKGRFTISRDNAKNTVYLQMNSLKPEDTAVYYCAAGKAYWYARKPYARYYYWGQGTQVTVSS,high polyreactivity
14,QVQLQGSGGGLAQAGDSLRLSCAASGTIFSEYNNGLVSPGAGQRTRTCCRYWCWGNTYYADSAKGRFTTSRDNANNTVYLQKNSLIPEDTAVYYCAFNRPYPSRHIYRGQGTQVTVSS,high polyreactivity
15,QVQLVESGGGLVQAGGSLRLSCASSGNTFTVNAMGWYRQAPGKERELVAAINYSGGSTYYADSVKGRFTISRDNAKNTVYLQMNSLKPEDTAVYYCAASPDELLYEMYYWGQGTQVTVSS,low polyreactivity
16,QVQLVESGGGLVLAGGSLRLSCAASGFTFLDNAMGWYRQAPGKERELVAAISGIGGSTSYADSVKGRFTISRDNAKNTVYLQMNSLKPEDTAVYYCATRLYKWSFTPKFEMDHWGQGTQVTVSS,low polyreactivity
17,QVQLVESGGGLVQAGGSLRLSCAASGRTFIWYVMGWYRQAPGKERELVASISTNGGNTYYADSVKGRFTISRDNAKNTVYLQMNSLKPEDTAVFYCAVDGVDAYYIAYYYWGQGTQVTVSS,high polyreactivity
18,QVQLVESWGGLVQAGGSLRLSCAASGNIFYFYAMGWYRQAPGKERELVAAITSVGSTKYADSVKGRFTISRDNAKNTVYLEMNCLKPEDTAVYYCAARRWRSYYYWGQGTHVTVSS,high polyreactivity
19,QVQLVDSGGRLFQAGGSLRLSCAAYGFSFSYYDMGSYRQAPGKERELVAAIFSNGRTYYADSVKGRFTISRDNAKNTVYLQMNSLKPVDTAVYYCAAAYVGYYYSRGFDYWGQGTQVTVSS,high polyreactivity
20,QVQLVESGGGLVQAGGSLRLSCAASGSTFRGYAMGWYRQAPGKEREFVAAITYTGSSTTYADSVKGRFTISRDNAKNTVYLQMNSLKPEDTAVYYCNKYTRFASSNMYYWGQGTQVTVSS,high polyreactivity
21,QVQLVESGGGLVQAGGSLRLSCAASGRIFYYYDMGWYRQAPGKERELVAGINDDSSTYYADSVKGRFTISRDNAKNTVYLQMNSLKPEDTAVYYCNAGPSWYPSWYYYWGQGTQVTVSS,low polyreactivity
